Drawing on article PMC12439145, “Aptamer-based drug delivery for targeted therapy of imatinib-resistant gastrointestinal stromal tumor”, this text covers Kd for two molecules.

Data set [1] has as its target T1, KIT (recombinant, YEASEN 93764ES80) (UniProt P10721 26-524). The experiment in a line: flow cytometry; KIT coated on aldehyde/sulfate latex beads; SPR at 25 C, His-KIT on CM5 chip, 50 mM NaOH regeneration; flow cytometry with 250 nM Cy5-aptamer in binding buffer with 1 mg/ml BSA and 1 mM yeast tRNA; salt and pH not given in material. The following applies: protein: commercial; tags: His-tag; label: Cy5 in flow cytometry; predicted stem-loop.

Data set [2] has as its target T1, KIT (recombinant, YEASEN 93764ES80). The experiment in a line: SPR; KIT immobilized on CM5 chip; SPR at 25 C, His-KIT on CM5 chip, 50 mM NaOH regeneration; flow cytometry with 250 nM Cy5-aptamer in binding buffer with 1 mg/ml BSA and 1 mM yeast tRNA; salt and pH not given in material. The following applies: protein: commercial; tags: His-tag; label: Cy5 in flow cytometry; predicted stem-loop.

T1 sequence (P10721 26-524): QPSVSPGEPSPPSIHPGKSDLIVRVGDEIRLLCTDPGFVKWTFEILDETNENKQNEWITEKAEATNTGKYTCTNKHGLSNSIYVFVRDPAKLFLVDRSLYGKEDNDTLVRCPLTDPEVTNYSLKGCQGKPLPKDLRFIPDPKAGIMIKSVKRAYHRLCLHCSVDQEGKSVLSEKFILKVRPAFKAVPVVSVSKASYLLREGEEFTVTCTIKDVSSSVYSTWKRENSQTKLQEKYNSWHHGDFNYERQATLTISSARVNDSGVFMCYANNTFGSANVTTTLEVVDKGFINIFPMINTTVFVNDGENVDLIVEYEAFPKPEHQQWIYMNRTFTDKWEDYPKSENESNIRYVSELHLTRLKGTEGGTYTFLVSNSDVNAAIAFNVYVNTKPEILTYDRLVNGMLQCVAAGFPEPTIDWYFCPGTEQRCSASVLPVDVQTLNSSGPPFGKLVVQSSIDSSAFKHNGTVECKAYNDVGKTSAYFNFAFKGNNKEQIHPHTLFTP

Consider ATTCAAGGGGCCGGGGCAAGGGGGGGGTACCGTGGTAGGACATAGT (ssDNA) [KIT-d], for which the Kd in data set [1] was 80.2 nM; in data set [2], 71.1 nM.

B1: KIT-w (ssDNA)
DNA: GAGGCATACCAGCTTATTCAAGGGGCCGGGGCAAGGGGGGGGTACCGTGGTAGGACATAGTAAGTGCAATCTGCGAA
As for B1, the equilibrium dissociation constant (Kd) in data set [1] is 106 nM; in data set [2], 84 nM.
